Where a chain is given by its changes, count along the chain named.
Molecular target: T1, OmpR-His6 (Yersinia enterocolitica Ye9) (UniProt P74982)
T1 sequence: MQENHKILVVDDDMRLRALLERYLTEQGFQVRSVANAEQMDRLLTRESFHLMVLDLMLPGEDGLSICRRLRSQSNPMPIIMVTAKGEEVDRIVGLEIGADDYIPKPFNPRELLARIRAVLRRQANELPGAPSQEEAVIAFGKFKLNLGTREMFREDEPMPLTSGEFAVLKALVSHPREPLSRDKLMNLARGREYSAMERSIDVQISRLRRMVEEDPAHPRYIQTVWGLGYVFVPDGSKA
Assay: EMSA
Details: 50 mM Tris-HCl pH 8.0, 100 mM KCl, 1 mM EDTA, 1 mM DTT, 20 mM MgCl2, 12% glycerol, 100 ug/mL BSA, 0.1% Triton X-100; 22 C, 15 min; 0.05 or 0.3 pmol DNA in …

Sequence	binding
CAATCTATTCACGGGGCAACAAAAACGAACAAGATTGATAATTATTTTCATTATCAATTCATCCGGCTAATTGTTACATTTGCAATCAGAAAAAAGGTTTGTGTAAACAGCAAAACTCTTTGCTATAAAGTCAATGTTGTTACTACATCAATACCAGTGAAGGAGTCATTATGCCCGCGGTGAAGAAAAATAAGTTGCGCAATATTTCCCCATCATCCAAACCGATTTATCGCGACCAAATTATGCA (double strand) [PfepA]	binds
CCCCCTTATTCCAAATGGTTTTTATTTCTCCTTTCTGTTTTTGCAGCAAGAAATAATTCGTCTGTTTGCGACAAAATTGATTTACTTGGGAAATGTAATCATTAAGATTAGCGTTTCTAAAAAATTACAATCAGACACAATTCCTTTCGCAATAGGCCCAAAATGTTAACGTTTTCCCGTTTGTCTCTG (double strand) [PfecA]	binds
GGTGGTAAAACAAGCGCAAATAGAAATCAGACTCATTAATTTTAAAAATGAAATCGTAATGAATATTTACTTTTGAGTCTTTAACCTGAGTTGAATATGAAAACGATTCTTACTATTATTATTTTAATCATTATTCATTAGTGGTGGAATTTCTCTGAACTCTGGTTTGCTAATGCGTTATAACGAGAGGCTTACATGCATCTGATCCCACAGCGCTCCTACAAAAT (double strand) [PfeoA]	binds more weakly

Molecular target: T2, OmpR-His6 (Yersinia enterocolitica Ye9) (UniProt P74982)
T2 sequence: T1 sequence with A136T
Assay: EMSA
Details: 50 mM Tris-HCl pH 8.0, 100 mM KCl, 1 mM EDTA, 1 mM DTT, 20 mM MgCl2, 12% glycerol, 100 ug/mL BSA, 0.1% Triton X-100; 22 C, 15 min; 0.05 or 0.3 pmol DNA in …

Sequence	binding
CGTTGCTTCTATCCCTCTGGTTATACTCTGTTAAGCCACCCACAGATCCGCACTTTCATCCGTGCAAAATGAAAATAAACTGCTACAAATTTGTAACCTTATACTTTGCAGTCAT (double strand) [F2]	binds
CGTTGCTTCTATCCCTCTGGTTATACTCTGTTAAGCCACCCACAGATCCGCACTTTCATCCGTGCAAAATGAAAATAAACTGCTACAAATTTGTAACCTTATACTTTGCAGTCATATACTTAAATTATGCAACAATCCCATTCATCAATACATTGCATGATTAATCGGGCAAAGTGTGCAATTATATCTTTGTTAACAACCACGGTTTTCATTTGGGGCTAGCAGTTCTATAATGAGACGCAA (double strand) [F23]	binds
GCATGATTAATCGGGCAAAGTGTGCAATTATATCTTTGTTAACAACCACGGTTTTCATTTGGGGCTAGCAGTTCTATAATGAGACGCAATTGAGAATATTGCGCCACGGATGTCATAGGCTGAACAGCC (double strand) [F0]	no binding
TGACAAATGAGCGCGTTGAAGCTTGGGTAAAACAGATCAGCGAAGAACTGAATCTGGCCGAAATTACCGGTTAATTTGTCATGTCGGAAACGCGAGGATGAAATTTAATATTGCCACGCGTTTCCGTTGCTTCTATCCCTCTGGTTATACTCTGTTAAGCCACCCACAGATCCGCACTTTCATCCGTGCAAAATGAAAATAAACTGCTACAAATTTGTAACCTTATACTTTGCAGTCAT (double strand) [F12]	binds
GCAGTCATATACTTAAATTATGCAACAATCCCATTCATCAATACATTGCATGATTAATCGGGCAAAGTGTGCAATTATATCTTTGTTAACAACCACGGTTTTCATTTGGGGCTAGCAGTTCTATAATGAGACGCAATTGAGAATATTGCGCCACGGATGTCATAGGCTGAACAGCCTTAATTTGAATCGATAGTAACAGGACTGAATCCGCATG (double strand) [F34]	binds
GCAGTCATATACTTAAATTATGCAACAATCCCATTCATCAATACATTGCATGATTAATCGGGCAAAGTGTGCAATTATATCTTTGTTAACAACCACGGTTTTCATTTGGGGCTAGCAGTTCTATAATGAGACGCAA (double strand) [F3]	binds
TCATTTTGCACGGATGAAAGTGCGGATCTGTGGGTGGCTTAACAGAGTATAACCAGAGGGATAGAAGCAACGGAAACGCGTGGCAATATTAAATTTCATCCTCGCGTTTCCGACATGACAAATTAACCGGTAATTTCGGCCAGATTCAGTTCT (double strand) [F1]	binds more weakly
CAATACATTGCATGATTAATCGGGCAAAGTGTGCAATTATATCTTTGTTAACAACCACGGTTTTCATTTGGGGCTAGCAGTTCTATAATGAGACGCAATTGAGAATATTGCGCCACGGATGTCATAGGCTGAACAGCCTTAATTTGAATCGATAGTAACAGGACTGAATCCGCATG (double strand) [F4]	binds more weakly

Reference: article PMC7867234
